Measured: in vitro cleavage of a target DNA by Cas9-sgRNA (10:1 Acr:Cas9 molar ratio)

B1: Nme1Cas9 (Neisseria meningitidis strain 8013 Cas9), recombinant purified protein (protein)
chain: MAAFKPNSINYILGLDIGIASVGWAMVEIDEEENPIRLIDLGVRVFERAEVPKTGDSLAMARRLARSVRRLTRRRAHRLLRTRRLLKREGVLQAANFDENGLIKSLPNTPWQLRAAALDRKLTPLEWSAVLLHLIKHRGYLSQRKNEGETADKELGALLKGVAGNAHALQTGDFRTPAELALNKFEKESGHIRNQRSDYSHTFSRKDLQAELILLFEKQKEFGNPHVSGGLKEGIETLLMTQRPALSGDAVQKMLGHCTFEPAEPKAAKNTYTAERFIWLTKLNNLRILEQGSERPLTDTERATLMDEPYRKSKLTYAQARKLLGLEDTAFFKGLRYGKDNAEASTLMEMKAYHAISRALEKEGLKDKKSPLNLSPELQDEIGTAFSLFKTDEDITGRLKDRIQPEILEALLKHISFDKFVQISLKALRRIVPLMEQGKRYDEACAEIYGDHYGKKNTEEKIYLPPIPADEIRNPVVLRALSQARKVINGVVRRYGSPARIHIETAREVGKSFKDRKEIEKRQEENRKDREKAAAKFREYFPNFVGEPKSKDILKLRLYEQQHGKCLYSGKEINLGRLNEKGYVEIDHALPFSRTWDDSFNNKVLVLGSENQNKGNQTPYEYFNGKDNSREWQEFKARVETSRFPRSKKQRILLQKFDEDGFKERNLNDTRYVNRFLCQFVADRMRLTGKGKKRVFASNGQITNLLRGFWGLRKVRAENDRHHALDAVVVACSTVAMQQKITRFVRYKEMNAFDGKTIDKETGEVLHQKTHFPQPWEFFAQEVMIRVFGKPDGKPEFEEADTLEKLRTLLAEKLSSRPEAVHEYVTPLFVSRAPNRKMSGQGHMETVKSAKRLDEGVSVLRVPLTQLKLKDLEKMVNREREPKLYEALKARLEAHKDDPAKAFAEPFYKYDKAGNRTQQVKAVRVEQVQKTGVWVRNHNGIADNATMVRVDVFEKGDKYYLVPIYSWQVAKGILPDRAVVQGKDEEDWQLIDDSFNFKFSLHPNDLVEVITKKARMFGYFASCHRGTGNINIRIHDLDHKIGKNGILEGIGVKTALSFQKYQIDELGKEIRPCRLKKRPPVR
AcrE2 failed to do so: AcrE2
all Arc families inhibited Nme1Cas9: AcrIIC2Nme | AcrIIC1Nme | AcrIIC3Nme | AcrIIC4Hpa | AcrIIC5Smu
